Assay [1] addresses T1, CXCR4 (Homo sapiens, UniProt P61073). Kind of assay: Displacement of biotinylated SDF-1 on Caki cells expressing hCXCR4, flow cytometry. It counts as binding. The note with it: 30 nM biotinylated SDF-1. Here is the method: In addition, CXCR4 Nanobodies were analysed for ligand competition by displacement of biotinylated SDF-1 on transient transfected Caki cells expressing hCXCR4 in flow cytometry. To this end, serial dilutions of Nanobodies were pre-incubated with 30 nM of biotinylated SDF-1 (R&D Systems Fluorikine kit) and incubated to Caki-CXCR4 cells for 1 hour at 4C, after which ligand binding was visualised using extravidin-PE. The biotin-SDF-1 competitor concentration used in this assay was below the EC50 value obtained in dose-titration, where IC50 values should reflect the Ki. Ligand displacement IC50 values were calculated, and compared to the NL4.3 (X4) neutralization potencies.
(In flow cytometry, cells or beads pass a laser one at a time.)

Assay [2] has as its system CXCR4-using (X4) HIV-1 clone NL4.3. The assay is described as follows: microbe, parasite or virus in culture. It counts as cell-based. To be noted: Example 10.
Assay [3] has as its target T1, CXCR4. The assay is described as follows: [125I]-CXCL12 radio-ligand displacement on membranes of HEK293 cells transfected with CXCR4. The class given is binding. To be noted: 75 pM [125I]-CXCL12. Here is the method: To this end, CXCR4 Nanobodies were analysed for their binding to HEK293T-CXCR4 cells, and their ability to compete with the ligand CXCL12 (or SDF-1a) for receptor binding in a radio-ligand displacement assay. The sequences of the respective CXCR4 Nanobodies are depicted in Table 3.1A.
Non-specific binding was determined in presence of 100 nM cold SDF-1. The assay was performed three times, and average percentages of SDF-1 inhibition and Ki values were calculated (Table 3.1B).

Assay [4] concerns HIV-1 CI#17 clinical isolate (clade B). The assay is described as follows: HIV-1 CI#17 infection of PBMCs, p24. It counts as cell-based. The note with it: PBMC, average 2 donors.
Assay [5] concerns the target interaction of CD4 with the viral gp120 protein (Homo sapiens, UniProt P01730). Kind of assay: ELISA-based competition of CD4-gp120 interaction. The class given is binding. The note with it: 500 nM Nanobody; gp120 HIV-1 IIIB. The procedure: Besides its role on T-cells, CD4 also serves as primary receptor for HIV entry. Therefore purified CD4 Nanobodies were analysed for the capacity to block the interaction of CD4 with the viral gp120 protein. Monovalent His-tagged Nanobodies were purified from periplasmic extracts by affinity and desalting chromatography and used in an ELISA-based competition setup. In short, 1 μg/ml of gp120 HIV-1 IIIB (Immunodiagnostic) was captured by 20 μg/ml of sheep anti-gp120 antibody D7324 (Aalto Bio Reagents) previously coated in 96 well Maxisorp microtiter plates (Nunc) and blocked with 1% casein in PBS. In parallel, 0.5 μg/ml of biotinylated CD4 was incubated with 500 nM of the different purified Nanobodies in 100 μl 0.1% Casein/PBS. After 1 hour, the biotinylated CD4-Nanobody pre-mixes were incubated 1 hour with the captured gp120. Bound biotinylated CD4 was detected using HRP-conjugated Extravidin (Sigma E2886). A blocking mouse anti-CD4 IgG2a antibody (Diaclone, clone B-A1 cat#854.030.000) was used as positive control. Blocking activity was determined as loss of O.D. signal, as compared to wells where no Nanobody was added.
(An ELISA detects its analyte on a solid surface through an enzyme-linked reagent.)

The target in assay [6] is T1, CXCR4. The assay is described as follows: CXCL12-AF647 binding inhibition on SupT1 cells by flow cytometry. To be noted: T-cells (SUPT-1); read-out: IC50 of blocking CXCL12AF647 binding to CXCR4.

T1 sequence (P61073 whole entry): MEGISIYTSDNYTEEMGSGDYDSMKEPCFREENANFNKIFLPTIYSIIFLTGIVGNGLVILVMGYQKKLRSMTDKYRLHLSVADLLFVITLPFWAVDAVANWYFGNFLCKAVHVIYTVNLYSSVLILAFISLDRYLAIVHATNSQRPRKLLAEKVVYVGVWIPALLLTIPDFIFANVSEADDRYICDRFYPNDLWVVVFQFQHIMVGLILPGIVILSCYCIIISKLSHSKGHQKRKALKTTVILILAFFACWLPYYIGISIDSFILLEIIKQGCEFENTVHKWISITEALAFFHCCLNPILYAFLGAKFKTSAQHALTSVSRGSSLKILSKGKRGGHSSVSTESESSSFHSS

B1: 15G11: anti-CXCR4 Nanobody, SEQ ID NO: 14 (protein)
VHH: EVQLVESGGGLVQAGDSLRVSCAASGRTSSYAMAWFRQAPGKEREFVGTISRTNSRTKYADFVEGRFTISRDNAKSTLSLQMTSLKPEDTAVYYCAAKWTGNSYHDYTWSKVDEYNVWGQGTQVTVSS
modifications: Nanobody Sequence
In the case of B1, in the assay with CXCR4 [1], the “ligand displacement to CXCR4” value was “hardly any ligand displacement”.

B2: 15A1: anti-CXCR4 Nanobody, SEQ ID NO: 15 (protein)
VHH: EVQLVESGGGLVQAGGSLRLSCAASGRTFSRAAMGWFRQAPGKEREFVGCALSSAGSALTADSVKGRFTISRDNAKNMVYLQMNNLKPEDTAVYSCVAGGYCTRAGVYPYWGQGTQVTVSS
modifications: Nanobody Sequence
Turning to B2, the “IC50 HIV1 neutralisation NL4.3 in MT-4 cells, panel of CXCR4 Nanobodies” value in assay [2] was “sub-nanoMolar range”.

B3: 281E10: anti-CXCR4 Nanobody, SEQ ID NO: 6 (protein)
VHH: EVQLVESGGGLVQAGGSLRLSCKASGGTFNNYAMGWFRRAPGKEREFVAAITRSGVRSGVSAIYGDSVKDRFTISRDNVKNTLYLQMNTLKPEDTAVYTCAASAIGSGALRRFEYDYSGQGTQVTVSS
modifications: Nanobody Sequence
Broadly, the IC50 is the concentration at which inhibition is half-maximal. By IC90 is commonly meant the point of the concentration-response curve where the effect stands at 90%. Read a high IC90 as weaker potency. B3: the “[125I] SDF-1 displacement on CXCR4-Hek pKi +/SEM (n = 3)” value with CXCR4 [3] is listed as 9.21 +/− 0.12. In assay [4], 1.3 nM corresponded to half-maximal inhibition (IC50) and the IC90 turned out to be 8.1 nM.

B4: 281A5: anti-CXCR4 Nanobody, SEQ ID NO: 5 (protein)
VHH: EVQLVESGGGLVQAGGSLRLSCAASGRTFNNYAMGWFRRAPGKEREFVAAITRSGVRSGVSAIYGDSVKDRFTISRDNAKNTLYLQMNSLKPEDTAVYTCAASAIGSGALRRFEYDYSGQGTQVTVSS
modifications: Nanobody Sequence
For B4, the “[125I] SDF-1 displacement on CXCR4-Hek pKi +/SEM (n = 3)” value with CXCR4 [3] is reported as 8.12 +/− 0.08. In assay [4], the midpoint of inhibition, the IC50, lay at 12 nM and the IC90 is greater than 57 nM.

B5: 281A6: anti-CXCR4 Nanobody, SEQ ID NO: 8 (protein)
VHH: EVQLVESGGGLVQTGGSLRLSCAASGGTFNNYAMGWFRRAPGKEREFVAAISRSGVRTGVSALYGDSVKDRFTISRDNAKNTLYLQMNKMKPEDTAVYTCAASAIGSGALRRFEYDSSGQGTQVTVSS
modifications: Nanobody Sequence
Consider B5, for which, in the assay with CXCR4 [3], the “[125I] SDF-1 displacement on CXCR4-Hek pKi +/SEM (n = 3)” value is 8.63 +/− 0.02. In addition, in assay [4], the half-inhibitory concentration (IC50) is 20 nM and the IC90 was found to be 61 nM.

B6: 281D4: anti-CXCR4 Nanobody, SEQ ID NO: 7 (protein)
VHH: EVQLVESGGGLVQAGGSLRLSCAASGGTFNNYAMGWFRRAPGKEREFVAAISRSGVRTGVSALYGDSVKDRFTISRDNAKNTLYLQMNKMKPEDTAVYTCAASAIGSGALRRFEYDSSGQGTQVTVSS
modifications: Nanobody Sequence
For B6, the “[125I] SDF-1 displacement on CXCR4-Hek pKi +/SEM (n = 3)” value with CXCR4 [3] was 8.27 +/− 0.05. Besides, in assay [4], the IC50 turned out to be 15 nM and the IC90 was found to be 33 nM.

B7: 283F1: anti-CXCR4 Nanobody, SEQ ID NO: 12 (protein)
VHH: EVQLVESGGGLVQAGGSLRLSCVASVNIFGSIAMAWYRQAPGKQRNLVASISSGGRINYADSRKGRFTISRDNTKNTVHLQMNSLEPEDTAVYYCAAGRIGQRTLTFTPDYWGQGTQVTVSS
modifications: Nanobody Sequence
With B7, in the assay with CXCR4 [3], the “[125I] SDF-1 displacement on CXCR4-Hek pKi +/SEM (n = 3)” value is 7.93 +/− 0.41. In assay [4], this molecule registered an IC50 of 2 nM and a 90% effect concentration (IC90) of 9.1 nM.

B8: 283B6: anti-CXCR4 Nanobody, SEQ ID NO: 10 (protein)
VHH: EVQLVASGGGLVQAGGSLRLSCAVSGTTFSVATLGWYRQAPGQQRALVADISSGGSTNYADSVRGRFTISRDNAKNLAYLQMNSLKPEDTAVYYCNARTSGWRTRSNYWGQGTQVTVSS
modifications: Nanobody Sequence
With B8, the “[125I] SDF-1 displacement on CXCR4-Hek pKi +/SEM (n = 3)” value in the assay with CXCR4 [3] is 8.78 +/− 0.24. In assay [4], this molecule yielded an IC50 of 2.8 nM and an IC90 of 9.9 nM.

B9: 283E2: anti-CXCR4 Nanobody, SEQ ID NO: 11 (protein)
VHH: EVQLVESGGGLVQAGGSLRLSCAVSGTTFSVATLGWYRQAPGQQRALVADISSGGSTNYADSVRGRFTISRDNAKNLAYLQMNSLKPEDTAVYYCNARTSGWRTRSNYWGQGTQVTVSS
modifications: Nanobody Sequence
In the case of B9, the “[125I] SDF-1 displacement on CXCR4-Hek pKi +/SEM (n = 3)” value with CXCR4 [3] is on record as 8.29 +/− 0.11. In assay [4], the IC50 came out at 3.7 nM.

B10: 01B6: anti-CD4 Nanobody, SEQ ID NO: 17 (protein)
VHH: EVQLVESGGGLVQSGGSLRLSCAASGFTFSGYWMYWVRQAPGKGLEWVSAISPGGGSTYYPDSVKGRFTISRDNAKNTLYLQMNSLKPEDTALYYCASSLTATHTYEYDYWGQGTQVTVSS
modifications: Nanobody Sequence
In the case of B10, the “blocking of in vitro interaction of CD4 with gp120” value in assay [5] is listed as “block”.

B11: 281F12-35GS-3F11: bispecific CXCR4-CD4 polypeptide, SEQ ID NO: 106 (protein)
chain: EVQLVESGGGLVQAGDSLRLSCAASGRAFSRYAMGWFRQAPGKEREFVAAIGWGPSKTNYADSVKGRFTISRDNAKNTVYLQMNTLKPEDTAVYSCAAKFVNTDSTWSRSEMYTYWGQGTQVTVSSGGGGSGGGGSGGGGSGGGGSGGGGSGGGGSGGGGSEVQLVESGGGSVQPGGSLTLSCGTSGRTFNVMGWFRQAPGKEREFVAAVRWSSTGIYYTQYADSVKSRFTISRDNAKNTVYLEMNSLKPEDTAVYYCAADTYNSNPARWDGYDFRGQGTQVTVSS
modifications: chains of the parent or of the whole protein
As to B11, the IC50 with CXCR4 [6] came out at 0.97 nM.

Source of the values: patent US10273305B2, “Bispecific CXCR4-CD4 polypeptides with potent anti-HIV activity” (Ablynx N.V., priority 2015, dated 2019).
